{"source": "paper PMC3989650", "binders": {"B1": {"name": "R:D60 (Cy3) (DNA:RNA)", "RNA": "GUGUGUGUGUGUGUGUGUGUGUGUGUGUGUGUGUGUGUGUGUGUGUGUGUGUGUGUGUGU", "?": "ACACACACACACACACACACACACACACACACACACACACACACACACACACACACACAC"}, "B2": {"name": "Cy5-ssDNA60 (ssDNA)", "DNA": "B1 ?"}, "B3": {"name": "Cy3-ssRNA60 (ssRNA)", "RNA": "B1 RNA"}}}
{"molecular_target": "T1, mTLR9-cECD (C-terminal proteolytic fragment of TLR9 ectodomain) (Mus musculus, UniProt Q9EQU3 474-824)", "T1 sequence": "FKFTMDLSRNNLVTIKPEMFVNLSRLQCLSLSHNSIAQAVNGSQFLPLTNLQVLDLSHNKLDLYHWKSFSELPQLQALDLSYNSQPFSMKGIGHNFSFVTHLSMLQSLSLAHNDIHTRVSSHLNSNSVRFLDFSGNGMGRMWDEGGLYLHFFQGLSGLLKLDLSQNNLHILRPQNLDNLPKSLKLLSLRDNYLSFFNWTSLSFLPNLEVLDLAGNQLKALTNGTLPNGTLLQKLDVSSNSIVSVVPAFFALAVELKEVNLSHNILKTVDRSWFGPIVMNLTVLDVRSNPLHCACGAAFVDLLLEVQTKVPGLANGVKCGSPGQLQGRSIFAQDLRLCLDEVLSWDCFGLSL", "experiment": "fluorescence anisotropy; 20 mM MES pH 5.6, 100 mM NaCl, 2 mM beta-mercaptoethanol, 25 C, 0.2 uM labelled R:D60, protein 10 nM-3.0 uM, 10 min equilibration", "units": {"Kd": "nM"}}
{"binder": "B1", "Kd": 27.2}
{"binder": "B2", "Kd": 142}
{"binder": "B3", "Kd": 1080}
